Columns and labels:
[1] = molecular target: nr1d1_human NR1D1 (UniProt P20393)
[2] = molecular target: nr1d1_human NR1D1 (UniProt P20393); remark: listed apart in the source

Chain of nr1d1_human NR1D1 (P20393 whole entry): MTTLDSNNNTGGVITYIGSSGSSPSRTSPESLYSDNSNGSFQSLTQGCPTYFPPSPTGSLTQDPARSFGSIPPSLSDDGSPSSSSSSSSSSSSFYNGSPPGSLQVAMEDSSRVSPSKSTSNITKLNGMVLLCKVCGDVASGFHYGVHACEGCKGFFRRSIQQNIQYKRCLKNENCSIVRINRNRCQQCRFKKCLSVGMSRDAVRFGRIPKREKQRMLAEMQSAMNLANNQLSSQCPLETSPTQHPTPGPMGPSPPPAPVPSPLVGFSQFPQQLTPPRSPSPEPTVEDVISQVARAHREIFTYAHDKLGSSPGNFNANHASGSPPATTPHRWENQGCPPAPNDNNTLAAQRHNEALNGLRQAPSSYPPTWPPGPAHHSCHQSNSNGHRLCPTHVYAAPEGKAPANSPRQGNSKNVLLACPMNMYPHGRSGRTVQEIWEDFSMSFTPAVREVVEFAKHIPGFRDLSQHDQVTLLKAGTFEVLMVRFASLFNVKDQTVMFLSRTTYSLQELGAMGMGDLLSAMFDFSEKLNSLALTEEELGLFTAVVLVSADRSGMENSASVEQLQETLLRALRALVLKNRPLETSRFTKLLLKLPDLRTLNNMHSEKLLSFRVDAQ

Substance: Nuclear receptor corepressor 1 (Homo sapiens), O75376 I2055A
- effect of a mutation on the interaction [1]: disrupting interaction

Substance: Nuclear receptor corepressor 1 (Homo sapiens), O75376 L2048A
- effect of a mutation on the interaction [2]: decreasing interaction

Substance: Nuclear receptor corepressor 1 (Homo sapiens), O75376 H2054A
- effect of a mutation on the interaction [2]: disrupting interaction

Substance: Nuclear receptor corepressor 1 (Homo sapiens), O75376 I2058A;I2059A
- effect of a mutation on the interaction [1]: disrupting interaction

Substance: Nuclear receptor corepressor 1 (Homo sapiens), O75376 L2051A
- effect of a mutation on the interaction [2]: decreasing interaction

Substance: Nuclear receptor corepressor 1 (Homo sapiens), O75376 I2058A
- effect of a mutation on the interaction [1]: disrupting interaction

Substance: Nuclear receptor corepressor 1 (Homo sapiens), O75376 I2059A
- effect of a mutation on the interaction [1]: disrupting interaction

Substance: Nuclear receptor corepressor 1 (Homo sapiens), O75376 H2046A
- effect of a mutation on the interaction [2]: decreasing interaction

Reference: IntAct's records for PubMed 20581824
